Test results reported in paper PMC5385372.

Target: sGFP-foldon
Assay: single-molecule fluorescence brightness analysis; GFP-fused proteins expressed in LTE (2-3 h, 27 °C), diluted about 10 times in buffer A (25 mM HEPES, 50 mM NaCl), 1-100 nanomolar, freely diffusing through a confocal volume, room temperature; also with serial dilution of the plasmid to vary the final expression level

sGFP-foldon, sequence (P10104 2-487): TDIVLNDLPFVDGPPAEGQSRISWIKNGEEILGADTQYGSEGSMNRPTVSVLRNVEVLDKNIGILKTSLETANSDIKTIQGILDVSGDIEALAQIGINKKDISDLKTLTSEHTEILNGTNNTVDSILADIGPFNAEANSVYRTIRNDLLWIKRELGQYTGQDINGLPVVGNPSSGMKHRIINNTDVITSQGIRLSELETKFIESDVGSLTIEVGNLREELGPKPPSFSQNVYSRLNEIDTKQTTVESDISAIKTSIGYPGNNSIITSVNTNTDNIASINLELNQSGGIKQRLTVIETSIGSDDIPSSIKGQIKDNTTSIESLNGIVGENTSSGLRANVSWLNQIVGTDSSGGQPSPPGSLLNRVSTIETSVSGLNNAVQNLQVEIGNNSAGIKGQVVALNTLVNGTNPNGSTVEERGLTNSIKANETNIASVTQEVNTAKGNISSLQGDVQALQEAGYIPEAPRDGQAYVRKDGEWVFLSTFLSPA

Substance: sGFP-foldon (domain or fragment)
- stoichiometry N: 3
